Measurements: US20250340651A1 (CULLINAN MICA, published 2025)

Tests used:
[1] = molecular target: MICA antigen of Table 2 (purified 6×His-MICA*08 or 6×His-MICA*04 protein); test: BLI (ForteBio Octet Red96); mAb captured on anti-mouse IgG Fc sensors, 6×His-MICA in solution, 1:1 model
Procedure: Affinity kinetics was determined on a ForteBio Octet Red96 analyzer. […] Sensors were washed in assay buffer and then incubated with purified 6×His-MICA*08 or 6×His-MICA*04 proteins (100 nM), in 2-fold dilution series for 5 minutes in assay buffer to determine association kinetics of the antibody with the protein antigen. Sensors were then incubated in assay buffer for 10 minutes to determine dissociation kinetics. The resulting kinetics parameters were calculated with ForteBio analysis suite 8.0 using a 1:1 model.

[2] = molecular target: T1, Recombinant MICA*08 protein; test: ELISA on coated recombinant antigen (1 µg/ml), goat anti-mouse IgG-HRP, OD 450 nm
T1 construct: Coated on ELISA plates
T1 sequence (Q29983 whole entry, species assumed, looked up): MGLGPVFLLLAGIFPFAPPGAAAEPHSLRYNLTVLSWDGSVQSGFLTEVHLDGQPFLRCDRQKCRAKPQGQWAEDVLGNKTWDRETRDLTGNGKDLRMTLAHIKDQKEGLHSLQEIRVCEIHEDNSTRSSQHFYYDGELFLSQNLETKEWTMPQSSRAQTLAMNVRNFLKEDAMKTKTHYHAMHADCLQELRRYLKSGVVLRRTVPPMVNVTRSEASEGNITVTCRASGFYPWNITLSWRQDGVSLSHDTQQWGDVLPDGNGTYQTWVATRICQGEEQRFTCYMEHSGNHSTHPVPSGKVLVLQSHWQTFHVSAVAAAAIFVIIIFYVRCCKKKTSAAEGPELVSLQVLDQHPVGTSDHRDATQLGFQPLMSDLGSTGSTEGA
Procedure: (§1) Recombinant MICA*01, MICA*02, MICA*04, MICA*08, MICA*09, and MICB proteins were diluted to 1 μg/ml in 50 mM sodium carbonate buffer, pH 9.6, and coated onto high binding 96-well microplates (Corning #9018), 100 ng in 100 μl per well. The following morning, coated ELISA plates were washed three times with TBS-Tween-20, pH 7.4 and then blocked in SuperBlock T20 Blocking Buffer (Pierce #37536). After blocking, ELISA plates were washed once with TBS-T and incubated with serially diluted anti-MICA antibody ([…]) for approximately two hours at room temperature. Following the incubation, ELISA plates were washed three times with TBS-T and then incubated with Goat anti-Mouse IgG (H+L)-HRP conjugate (ThermoFisher Scientific #626520) for 45 minutes at room temperature with shaking (˜400 rpm). After the incubation, ELISA plates were washed three times with TBS-T and incubated with Super Sensitive Liquid Substrate TMB (Sigma #T4444), 100 μl per well, until color development was sufficient. The reaction was stopped with 1N sulfuric acid, 100 μl per well. Optical density (OD) values were measured at 450 nm using a microplate reader.

[3] = molecular target: T2, Recombinant MICA*09 protein; test: as above
T2 construct: Coated on ELISA plates
T2 sequence (Q29983 whole entry, species assumed, looked up): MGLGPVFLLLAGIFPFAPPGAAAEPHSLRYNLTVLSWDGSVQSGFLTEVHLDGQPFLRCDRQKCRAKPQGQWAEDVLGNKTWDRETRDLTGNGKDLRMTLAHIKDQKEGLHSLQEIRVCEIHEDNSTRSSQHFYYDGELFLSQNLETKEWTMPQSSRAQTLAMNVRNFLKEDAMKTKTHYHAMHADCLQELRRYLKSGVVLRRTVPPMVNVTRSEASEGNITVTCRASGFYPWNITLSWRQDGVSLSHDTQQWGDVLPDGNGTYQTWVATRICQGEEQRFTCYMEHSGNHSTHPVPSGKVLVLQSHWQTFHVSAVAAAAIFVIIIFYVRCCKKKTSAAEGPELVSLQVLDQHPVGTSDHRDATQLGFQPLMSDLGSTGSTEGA
Procedure: as §1

[4] = molecular target: T3, Recombinant MICA*01 protein (Homo sapiens (Human), UniProt Q29983 24-307); test: as above
T3 construct: Coated on ELISA plates
T3 sequence: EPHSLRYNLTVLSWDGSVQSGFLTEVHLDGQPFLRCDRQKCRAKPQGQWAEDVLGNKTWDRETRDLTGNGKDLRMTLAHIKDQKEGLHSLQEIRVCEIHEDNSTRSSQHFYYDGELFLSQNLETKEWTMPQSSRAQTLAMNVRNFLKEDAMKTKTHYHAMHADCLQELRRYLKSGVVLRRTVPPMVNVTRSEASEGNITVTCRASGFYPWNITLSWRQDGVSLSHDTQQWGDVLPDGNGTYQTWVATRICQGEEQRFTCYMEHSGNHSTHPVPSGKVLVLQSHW
Procedure: as §1

Recombinant MICB protein = molecular target: T4, Recombinant MICB protein (UniProt Q29980 23-298, limits assumed); test: as above
T4 construct: Coated on ELISA plates
T4 sequence (looked up): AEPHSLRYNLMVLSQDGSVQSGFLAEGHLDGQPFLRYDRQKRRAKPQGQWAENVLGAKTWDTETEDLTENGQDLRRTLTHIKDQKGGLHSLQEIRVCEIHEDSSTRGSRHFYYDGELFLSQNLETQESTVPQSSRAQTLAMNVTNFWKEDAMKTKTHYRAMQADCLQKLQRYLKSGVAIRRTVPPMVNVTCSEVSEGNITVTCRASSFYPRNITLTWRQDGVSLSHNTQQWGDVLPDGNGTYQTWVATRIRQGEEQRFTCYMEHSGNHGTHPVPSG
Procedure: as §1

[5] = molecular target: T5, Recombinant MICA*04 protein; test: as above
T5 construct: Coated on ELISA plates
T5 sequence (Q29983 whole entry, species assumed, looked up): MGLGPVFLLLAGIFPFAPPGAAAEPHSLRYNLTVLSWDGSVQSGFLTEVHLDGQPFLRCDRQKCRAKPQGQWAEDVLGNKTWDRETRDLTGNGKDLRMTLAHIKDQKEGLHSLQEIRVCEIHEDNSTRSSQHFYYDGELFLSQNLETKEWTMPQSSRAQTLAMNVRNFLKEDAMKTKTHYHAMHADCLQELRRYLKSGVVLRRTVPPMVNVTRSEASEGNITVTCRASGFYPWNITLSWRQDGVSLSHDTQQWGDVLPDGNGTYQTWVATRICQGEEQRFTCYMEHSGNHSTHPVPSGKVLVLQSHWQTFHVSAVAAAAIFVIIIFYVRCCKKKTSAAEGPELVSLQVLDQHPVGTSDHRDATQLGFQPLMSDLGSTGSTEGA
Procedure: as §1

[6] = molecular target: T6, Recombinant MICA*02 protein; test: as above
T6 construct: Coated on ELISA plates
T6 sequence (Q29983 whole entry, species assumed, looked up): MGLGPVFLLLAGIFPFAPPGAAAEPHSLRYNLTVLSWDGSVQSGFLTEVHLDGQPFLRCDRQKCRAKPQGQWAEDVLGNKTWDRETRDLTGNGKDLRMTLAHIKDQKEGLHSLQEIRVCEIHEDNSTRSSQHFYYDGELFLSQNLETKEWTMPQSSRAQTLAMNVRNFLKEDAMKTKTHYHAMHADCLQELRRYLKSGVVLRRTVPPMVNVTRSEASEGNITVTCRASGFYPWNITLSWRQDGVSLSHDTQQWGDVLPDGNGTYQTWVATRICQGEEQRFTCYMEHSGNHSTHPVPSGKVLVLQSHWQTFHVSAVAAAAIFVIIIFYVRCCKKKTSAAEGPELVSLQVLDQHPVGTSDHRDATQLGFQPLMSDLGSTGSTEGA
Procedure: as §1

human FcRn = human FcRn (human, UniProt P55899 24-297; P61769 21-119, limits assumed); test: Biacore (SPR), steady state analysis, pH 6.0; Relative Binding +++
CD16A (176 Val) = molecular target: T7, CD16A (176 Val) (human, UniProt P08637); test: Biacore (SPR), receptor loaded on the chip, antibody as analyte, steady state analysis (FIG. 9)
T7 construct: also called FcγRIIIA 176 Val

CD16A (176 Phe) = molecular target: T8, CD16A (176 Phe) (human, UniProt P08637); test: as above
T8 construct: also called FcγRIIIA 176Phe

human FcγRI = molecular target: T9, human FcγRI (human, UniProt P12314 16-288, limits assumed); test: Biacore (SPR), receptor loaded on the chip, antibody 0.411 to 33.33 nM as analyte, 1:1 affinity analysis (FIG. 9)
T9 construct: Biacore partner; also called FcγR1

CD32A (167His) = molecular target: T10, CD32A (167His); test: Biacore (SPR), receptor loaded on the chip, antibody 296.3 to 24000 nM as analyte, steady state analysis (FIG. 9)
T10 construct: also called FcγRIIA 167His; not shown: The vendor's tag
T10 chain: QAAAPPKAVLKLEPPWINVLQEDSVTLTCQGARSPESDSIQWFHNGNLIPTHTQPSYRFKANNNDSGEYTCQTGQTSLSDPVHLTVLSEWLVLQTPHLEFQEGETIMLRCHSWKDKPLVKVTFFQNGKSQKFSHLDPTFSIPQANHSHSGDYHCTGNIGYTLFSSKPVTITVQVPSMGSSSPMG

CD32B = molecular target: T11, CD32B (human, UniProt P31994); test: as above
T11 construct: also called FcγRIIB
T11 sequence (receptor, looked up): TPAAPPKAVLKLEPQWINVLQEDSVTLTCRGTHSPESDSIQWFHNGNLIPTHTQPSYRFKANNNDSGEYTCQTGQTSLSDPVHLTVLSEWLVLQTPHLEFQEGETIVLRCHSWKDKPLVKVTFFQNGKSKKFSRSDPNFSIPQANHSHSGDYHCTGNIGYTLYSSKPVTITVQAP

T9 sequence (P12314 16-288 limits assumed): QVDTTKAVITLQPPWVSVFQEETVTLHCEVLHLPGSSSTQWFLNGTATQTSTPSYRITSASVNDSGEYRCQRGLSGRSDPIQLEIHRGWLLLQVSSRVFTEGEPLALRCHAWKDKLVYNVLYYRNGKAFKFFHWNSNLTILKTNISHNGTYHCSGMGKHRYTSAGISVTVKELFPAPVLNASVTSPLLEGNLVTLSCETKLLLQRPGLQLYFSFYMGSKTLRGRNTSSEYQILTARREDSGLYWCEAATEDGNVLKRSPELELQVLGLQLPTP
T7 sequence (P08637 17-208 F176V limits assumed): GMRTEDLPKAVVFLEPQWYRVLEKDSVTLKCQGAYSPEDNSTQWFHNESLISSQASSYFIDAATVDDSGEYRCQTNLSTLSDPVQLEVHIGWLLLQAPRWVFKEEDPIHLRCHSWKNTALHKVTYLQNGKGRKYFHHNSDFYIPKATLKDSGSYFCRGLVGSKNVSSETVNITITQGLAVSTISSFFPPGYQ
T8 sequence (P08637 17-208 limits assumed): as the sequence (P08637 17-208 F176V limits assumed) above, with V160F counted along it
Sequence of human FcRn (P55899 24-297 limits assumed, chain 1 of 2): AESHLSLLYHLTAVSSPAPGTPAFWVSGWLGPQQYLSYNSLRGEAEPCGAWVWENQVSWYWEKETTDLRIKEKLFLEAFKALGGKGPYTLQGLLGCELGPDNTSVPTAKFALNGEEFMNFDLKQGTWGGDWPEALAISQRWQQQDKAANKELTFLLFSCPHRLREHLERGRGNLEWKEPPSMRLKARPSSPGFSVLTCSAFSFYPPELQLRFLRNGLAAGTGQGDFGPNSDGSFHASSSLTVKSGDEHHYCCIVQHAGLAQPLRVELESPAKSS
Sequence of human FcRn (P61769 21-119 limits assumed, chain 2 of 2): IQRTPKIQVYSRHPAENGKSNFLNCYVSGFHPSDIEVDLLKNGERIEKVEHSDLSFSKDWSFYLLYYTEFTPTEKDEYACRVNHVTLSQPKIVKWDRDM

B1: 3F9.E4 (antibody, V domains shown)
VH: EVQLQESGEGLVKPGGSLKLSCAASGFTFSNYAMSWVRQTPEKRLEWVAYISPGGDYIYYADTVKGRFTISRDNARNTLYLQMSSLKSEDTAMYYCTTDRRHYGSYAMDYWGQGISVTVSS
VL: DIVMTQAAPSVPVTPGESVSISCRSSKSLLHSNGNTYLYWFLQRPGQSPQLLIYRMSNLASGVPDRFSGSGSGTAFTLRISRVEAEDVGVYYCMQHLEYPFTFGSGTKLEIK
notes: Mouse monoclonal: captured on anti-mouse IgG Fc sensors and detected with anti-mouse IgG; also called 3F9 antibody; anti-MICA/B mAb
[1]
  Kd: 1.18 nM
  koff: 0.000421 s⁻¹
  kon: 383000 M⁻¹ s⁻¹
[2]
  EC50 (read off the curve): ~0.03 µg/mL
[3]
  EC50 (read off the curve): ~0.03 µg/mL
[4]
  EC50 (read off the curve): ~0.03 µg/mL
Recombinant MICB protein
  EC50 (read off the curve): ~0.03 µg/mL
[5]
  EC50 (read off the curve): ~0.03 µg/mL
[6]
  EC50 (read off the curve): ~0.03 µg/mL

B2: anti-MICA/B 3F9H1L3L wild type antibody (antibody, human IgG1, kappa)
heavy: not shown
light: DIVMTQSPLSLPVTPGEPASISCRSSKSLLHSNLNTYLYWFLQKPGQSPQILIYRMSNLASGVPDRFSGSGSGTAFTLKISRVEAEDVGVYYCMQHLEYPFTFGPGTKLEIKRTVAAPSVFIFPPSDEQLKSGTASVVCLLNNFYPREAKVQWKVDNALQSGNSQESVTEQDSKDSTYSLSSTLTLSKADYEKHKVYACEVTHQGLSSPVTKSFNRGEC
notes: also called CLN-619; CLN619; copies: 2 + 2
Human FcRn
  Kd: 489 nM
CD16A (176 Val)
  binding result: binds
CD16A (176 Phe)
  binding result: binds
Human FcγRI
  binding result: binds
CD32A (167His)
  binding result: binds
CD32B
  binding result: binds

B3: anti-MICA/B 3F9H1L3L afucosylated antibody (antibody, human IgG1, kappa)
heavy: not shown
light: DIVMTQSPLSLPVTPGEPASISCRSSKSLLHSNLNTYLYWFLQKPGQSPQILIYRMSNLASGVPDRFSGSGSGTAFTLKISRVEAEDVGVYYCMQHLEYPFTFGPGTKLEIKRTVAAPSVFIFPPSDEQLKSGTASVVCLLNNFYPREAKVQWKVDNALQSGNSQESVTEQDSKDSTYSLSSTLTLSKADYEKHKVYACEVTHQGLSSPVTKSFNRGEC
modifications: afucosylated Fc N-glycan (Fc glycosylation site Asn 297, EU numbering), made with GlymaxX technology
notes: It differs only by lacking fucose on the Fc glycan; also called GLYMAXX; 3F9H1L3L GLYMAXX; copies: 2 + 2
Human FcRn
  Kd: 468 nM
CD16A (176 Val)
  binding result: binds
CD16A (176 Phe)
  binding result: binds
Human FcγRI
  binding result: binds
CD32A (167His)
  binding result: binds
CD32B
  binding result: binds

B4: anti-MICA/B 3F9H1L3L antibody with the two heavy chain S239D and I332E mutations (antibody, human IgG1, kappa)
heavy: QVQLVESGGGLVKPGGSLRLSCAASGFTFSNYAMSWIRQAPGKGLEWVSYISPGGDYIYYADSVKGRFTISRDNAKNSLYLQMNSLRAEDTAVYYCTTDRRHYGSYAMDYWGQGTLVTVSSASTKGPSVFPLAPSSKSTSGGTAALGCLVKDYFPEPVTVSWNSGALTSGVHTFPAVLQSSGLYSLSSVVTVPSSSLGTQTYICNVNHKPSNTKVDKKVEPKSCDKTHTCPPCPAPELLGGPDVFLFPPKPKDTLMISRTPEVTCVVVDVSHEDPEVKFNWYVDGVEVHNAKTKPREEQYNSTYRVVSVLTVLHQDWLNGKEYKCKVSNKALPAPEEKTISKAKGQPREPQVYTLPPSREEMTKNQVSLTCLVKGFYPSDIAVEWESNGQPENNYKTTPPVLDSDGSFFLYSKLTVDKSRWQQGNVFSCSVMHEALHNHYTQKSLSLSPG
light: DIVMTQSPLSLPVTPGEPASISCRSSKSLLHSNLNTYLYWFLQKPGQSPQILIYRMSNLASGVPDRFSGSGSGTAFTLKISRVEAEDVGVYYCMQHLEYPFTFGPGTKLEIKRTVAAPSVFIFPPSDEQLKSGTASVVCLLNNFYPREAKVQWKVDNALQSGNSQESVTEQDSKDSTYSLSSTLTLSKADYEKHKVYACEVTHQGLSSPVTKSFNRGEC
notes: also called 3F9HIL3L S239D and I332E; CLN-619 DM; copies: 2 + 2
Human FcRn
  Kd: 504 nM
CD16A (176 Val)
  binding result: binds
CD16A (176 Phe)
  binding result: binds
Human FcγRI
  binding result: binds
CD32A (167His)
  binding result: binds
CD32B
  binding result: binds

B5: 16F10.C12 (antibody, V domains shown)
VH: EVQLQESGPGLVAPSQSLSITCTVSGFSLTAFGVNWVRQPPGKGLEWLGMIWGDGNTDYNSTLRSRLSISKDNSKSQVFLKLNSLQTDDTARYFCARETYYGNYAGLGYWGQGTLVTVSA
VL: QIVLTQSPAIMSASIGERVTMTCTASSSVSSNYLHWYQQKPRSSPKLWIYTTSNLASGVPTRFSGSGSGTSYSLTISSMEAEDAATYYCHQFHRSPFTFGSGTKLEIK
notes: Mouse monoclonal: captured on anti-mouse IgG Fc sensors
[1]
  Kd: 6.45 nM
  koff: 0.000548 s⁻¹
  kon: 93300 M⁻¹ s⁻¹
